According to the supplement of paper PMC9112550, “Optimization of the antimicrobial peptide Bac7 by deep mutational scanning” (BMC Biology, 2022):

System: Escherichia coli TOP10
Experiment: shrunken log2 fold change of peptide-encoding DNA abundance (4.5 h post-induction vs induction); higher = less antimicrobial activity (less host growth inhibition)
Conditions: time post-induction: 4.5 h; library: site-saturation at positions 5, 18, 19, 20
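Further: peptides expressed intracellularly from a pBAD plasmid library in pooled LB shake-flask culture, induced with 0.3% L-arabinose, DNA abundance read by NGS, three biological replicates, DESeq2 with apeglm shrinkage.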

Sequence	shrunken log2 fold change
RRIRYRPPRLPRPRPRPIFEPRP	-0.833
RRIRYRPPRLPRPRPRPMVLPRP	-0.0934
RRIRQRPPRLPRPRPRPMDFPRP	0.015
RRIRIRPPRLPRPRPRPKDNPRP	-0.606
RRIRKRPPRLPRPRPRPRPLPRP	0.73
RRIRVRPPRLPRPRPRPWRKPRP	0.0283
RRIRNRPPRLPRPRPRPRHLPRP	-0.337
RRIRMRPPRLPRPRPRPWLMPRP	0.0599
RRIRLRPPRLPRPRPRPAKVPRP	-0.0169
RRIRYRPPRLPRPRPRPDLEPRP	-0.0757
RRIRCRPPRLPRPRPRPIYSPRP	-0.59
RRIRGRPPRLPRPRPRPLHVPRP	-0.0922
RRIRIRPPRLPRPRPRPENLPRP	-0.0595
RRIRRRPPRLPRPRPRPKWDPRP	0.139
RRIRFRPPRLPRPRPRPMCPPRP	-0.176
RRIRQRPPRLPRPRPRPHRFPRP	-0.275
RRIRIRPPRLPRPRPRPSIKPRP	-0.64
RRIRGRPPRLPRPRPRPYTCPRP	-0.0226
RRIRVRPPRLPRPRPRPNWIPRP	-0.29
RRIRSRPPRLPRPRPRPVQVPRP	0.159
RRIRWRPPRLPRPRPRPEKRPRP	0.028
RRIRARPPRLPRPRPRPWCGPRP	0.0572
RRIRERPPRLPRPRPRPGPKPRP	-0.00801
RRIRKRPPRLPRPRPRPYPVPRP	-0.801
RRIRCRPPRLPRPRPRPCTNPRP	-0.134

Sequence	shrunken log2 fold change
RRIRTRPPRLPRPRPRPQDKPRP	-0.658
RRIRNRPPRLPRPRPRPEFEPRP	0.114
RRIRKRPPRLPRPRPRPCPSPRP	-0.0812
RRIRIRPPRLPRPRPRPKQWPRP	-0.0255
RRIRCRPPRLPRPRPRPLFRPRP	-0.283
RRIRPRPPRLPRPRPRPAEHPRP	0.214
RRIRLRPPRLPRPRPRPDEHPRP	-0.287
RRIRFRPPRLPRPRPRPHAAPRP	0.062
RRIRLRPPRLPRPRPRPWADPRP	-0.118
RRIRWRPPRLPRPRPRPERTPRP	1.08
RRIRRRPPRLPRPRPRPCFLPRP	-0.269
RRIRGRPPRLPRPRPRPTITPRP	0.526
RRIRYRPPRLPRPRPRPHDDPRP	0.0514
RRIRLRPPRLPRPRPRPWLIPRP	-0.00228
RRIRDRPPRLPRPRPRPPCGPRP	0.411
RRIRLRPPRLPRPRPRPTEDPRP	-0.0182
RRIRPRPPRLPRPRPRPARKPRP	0.705
RRIRTRPPRLPRPRPRPHHVPRP	0.0387
RRIRIRPPRLPRPRPRPLYDPRP	-1.02
RRIRARPPRLPRPRPRPMPIPRP	0.708
RRIRYRPPRLPRPRPRPGTVPRP	0.0427
RRIRMRPPRLPRPRPRPASAPRP	1.09
RRIRYRPPRLPRPRPRPSCQPRP	-0.296
RRIRFRPPRLPRPRPRPNDNPRP	-0.616
RRIRPRPPRLPRPRPRPHDMPRP	-1.48

Sequence	shrunken log2 fold change
RRIRSRPPRLPRPRPRPDANPRP	0.183
RRIRQRPPRLPRPRPRPRTRPRP	0.225
RRIRRRPPRLPRPRPRPEWVPRP	0.344
RRIRLRPPRLPRPRPRPRAWPRP	0.41
RRIRLRPPRLPRPRPRPCHPPRP	0.159
RRIRRRPPRLPRPRPRPLLDPRP	0.449
RRIRARPPRLPRPRPRPGDVPRP	0.194
RRIRIRPPRLPRPRPRPVDRPRP	0.0811
RRIRDRPPRLPRPRPRPWRMPRP	-0.397
RRIRGRPPRLPRPRPRPQIPPRP	0.25
RRIRTRPPRLPRPRPRPRSQPRP	1.58
RRIRIRPPRLPRPRPRPYVWPRP	-1.33
RRIRKRPPRLPRPRPRPGWVPRP	0.573
RRIRFRPPRLPRPRPRPEHHPRP	-0.306
RRIRQRPPRLPRPRPRPLEDPRP	0.0428
RRIRTRPPRLPRPRPRPIRGPRP	0.074
RRIRVRPPRLPRPRPRPQRFPRP	-0.163
RRIRIRPPRLPRPRPRPCAGPRP	-0.000248
RRIRDRPPRLPRPRPRPDIRPRP	-0.00151
RRIRDRPPRLPRPRPRPHGGPRP	0.0317
RRIRDRPPRLPRPRPRPGCGPRP	0.92
RRIRMRPPRLPRPRPRPYDVPRP	-0.562
RRIRGRPPRLPRPRPRPEGNPRP	0.0816
RRIRLRPPRLPRPRPRPLKSPRP	-0.146
RRIRWRPPRLPRPRPRPESEPRP	0.916

Sequence	shrunken log2 fold change
RRIRDRPPRLPRPRPRPNSKPRP	-0.506
RRIRKRPPRLPRPRPRPRIRPRP	0.344
RRIRSRPPRLPRPRPRPIIVPRP	0.0771
RRIRVRPPRLPRPRPRPWYRPRP	-0.39
RRIRLRPPRLPRPRPRPEAMPRP	0.284
RRIRYRPPRLPRPRPRPENFPRP	0.00911
RRIRHRPPRLPRPRPRPTSYPRP	-0.178
RRIRVRPPRLPRPRPRPYERPRP	0.0458
RRIRWRPPRLPRPRPRPHTEPRP	-0.0123
RRIRNRPPRLPRPRPRPIETPRP	-0.0081
RRIRKRPPRLPRPRPRPHWYPRP	0.0533
RRIRFRPPRLPRPRPRPLQYPRP	-0.242
RRIRWRPPRLPRPRPRPRFHPRP	-0.293
RRIRWRPPRLPRPRPRPPSPPRP	0.598
RRIRHRPPRLPRPRPRPGNMPRP	-0.121
RRIRTRPPRLPRPRPRPAFFPRP	0.0542
RRIRWRPPRLPRPRPRPIWRPRP	0.628
RRIRSRPPRLPRPRPRPQAPPRP	0.142
RRIRRRPPRLPRPRPRPHNLPRP	-0.176
RRIRTRPPRLPRPRPRPWNRPRP	-0.0406
RRIRQRPPRLPRPRPRPWFMPRP	-1.08
RRIRWRPPRLPRPRPRPHMRPRP	0.494
RRIRCRPPRLPRPRPRPNINPRP	-0.181
RRIRYRPPRLPRPRPRPRLVPRP	-0.0287
RRIRTRPPRLPRPRPRPRNPPRP	0.000872

Sequence	shrunken log2 fold change
RRIRVRPPRLPRPRPRPHNLPRP	-0.356
RRIRLRPPRLPRPRPRPISPPRP	-0.333
RRIRSRPPRLPRPRPRPPILPRP	0.0371
RRIRIRPPRLPRPRPRPERLPRP	0.0553
RRIRRRPPRLPRPRPRPGDIPRP	0.0886
RRIRVRPPRLPRPRPRPCPCPRP	-0.151
RRIRMRPPRLPRPRPRPQKKPRP	-0.0151
RRIRYRPPRLPRPRPRPDQYPRP	-0.292
RRIRFRPPRLPRPRPRPQDKPRP	-0.308
RRIRYRPPRLPRPRPRPKCIPRP	-0.154
RRIRFRPPRLPRPRPRPDLGPRP	0.106
RRIRIRPPRLPRPRPRPPQLPRP	-0.122
RRIRNRPPRLPRPRPRPLNQPRP	-0.225
RRIRCRPPRLPRPRPRPTRWPRP	0.284
RRIRERPPRLPRPRPRPSSKPRP	-0.639
RRIRHRPPRLPRPRPRPTHPPRP	0.155
RRIRQRPPRLPRPRPRPRMKPRP	-0.249
RRIRSRPPRLPRPRPRPNPMPRP	-0.111
RRIRERPPRLPRPRPRPTYPPRP	-1.11
RRIRMRPPRLPRPRPRPTCQPRP	-0.049
RRIRIRPPRLPRPRPRPNPMPRP	-0.169
RRIRSRPPRLPRPRPRPANKPRP	-0.283
RRIRERPPRLPRPRPRPCRKPRP	-0.103
RRIRVRPPRLPRPRPRPFHRPRP	-0.0437
RRIRKRPPRLPRPRPRPVEQPRP	0.12

Sequence	shrunken log2 fold change
RRIRERPPRLPRPRPRPGSIPRP	0.0371
RRIRERPPRLPRPRPRPEIIPRP	0.0655
RRIRARPPRLPRPRPRPHACPRP	0.066
RRIRQRPPRLPRPRPRPFQTPRP	-0.01
RRIRKRPPRLPRPRPRPVQPPRP	0.0838
RRIRVRPPRLPRPRPRPRITPRP	-0.11
RRIRCRPPRLPRPRPRPLPNPRP	-0.0586
RRIRLRPPRLPRPRPRPPQSPRP	0.0818
RRIRPRPPRLPRPRPRPRGFPRP	0.341
RRIRYRPPRLPRPRPRPYWNPRP	-1.63
RRIRKRPPRLPRPRPRPWTSPRP	-0.113
RRIRYRPPRLPRPRPRPCIPPRP	-0.11
RRIRTRPPRLPRPRPRPEGGPRP	0.203
RRIRCRPPRLPRPRPRPWQCPRP	-0.0231
RRIRKRPPRLPRPRPRPMDKPRP	0.166
RRIRPRPPRLPRPRPRPAASPRP	-0.0885
RRIRRRPPRLPRPRPRPHIVPRP	-0.0515
RRIRPRPPRLPRPRPRPHYVPRP	-0.348
RRIRARPPRLPRPRPRPPADPRP	1.42
RRIRQRPPRLPRPRPRPVKQPRP	-0.0153
RRIRERPPRLPRPRPRPMQDPRP	0.306
RRIRMRPPRLPRPRPRPYPIPRP	0.0414
RRIRCRPPRLPRPRPRPQLGPRP	-0.00405
RRIRVRPPRLPRPRPRPKWMPRP	-0.0468
RRIRNRPPRLPRPRPRPKCPPRP	-0.124
